This note sets out measurements from patent US20060029603A1 (GlaxoSmithKline, published 2006).

B1: H6L6 (antibody, human IgG1, kappa, V domains shown)
VH: QVQLVQSGAEVKKPGASVKVSCKASGYTFTSYWMHWVRQAPGQGLEWIGNINPSNGGTNYNEKFKSRATMTRDTSTSTAYMELSSLRSEDTAVYYCELGQGYWGQGTLVTVSS
VL: DIVMTQSPLSLPVTPGEPASISCRSSKSLLYKDGKTYLNWFLQRPGQSPQLLIYLMSTRASGVPDRFSGSGSGTDFTLKISRVEAEDVGVYYCQQLVEYPLTFGGGTKVEIKR
B2: H5L6 (antibody, human IgG1, kappa, V domains shown)
VH: QVQLVQSGAEVKKPGASVKVSCKASGYTFTSYWMHWVRQAPGQGLEWMGNINPSNGGTNYNEKFKSRVTMTRDTSTSTAYMELSSLRSEDTAVYYCELGQGYWGQGTLVTVSS
VL: DIVMTQSPLSLPVTPGEPASISCRSSKSLLYKDGKTYLNWFLQRPGQSPQLLIYLMSTRASGVPDRFSGSGSGTDFTLKISRVEAEDVGVYYCQQLVEYPLTFGGGTKVEIKR
B3: H10L13 (antibody, V domains shown)
VH: QVQLVQSGAEVKKPGASVKLSCKASGYTFTSYWMHWVKQAPGQGLEWIGNINPSNGGTNYNEKFKSRATLTVDKSTSTAYMELSSLRSEDTAVYYCELGQGYWGQGTLVTVSS
VL: DIVMTQSPLSLPVTLGQPASISCRSSKSLLYKDGKTYLNWFQQRPGQSPQLLIYLMSTRASGVPDRFSGGGSGTDFTLKISRVEAEDVGVYYCQQLVEYPLTFGQGTKLEIK
B4: HcL11 (antibody, human IgG1, kappa)
heavy: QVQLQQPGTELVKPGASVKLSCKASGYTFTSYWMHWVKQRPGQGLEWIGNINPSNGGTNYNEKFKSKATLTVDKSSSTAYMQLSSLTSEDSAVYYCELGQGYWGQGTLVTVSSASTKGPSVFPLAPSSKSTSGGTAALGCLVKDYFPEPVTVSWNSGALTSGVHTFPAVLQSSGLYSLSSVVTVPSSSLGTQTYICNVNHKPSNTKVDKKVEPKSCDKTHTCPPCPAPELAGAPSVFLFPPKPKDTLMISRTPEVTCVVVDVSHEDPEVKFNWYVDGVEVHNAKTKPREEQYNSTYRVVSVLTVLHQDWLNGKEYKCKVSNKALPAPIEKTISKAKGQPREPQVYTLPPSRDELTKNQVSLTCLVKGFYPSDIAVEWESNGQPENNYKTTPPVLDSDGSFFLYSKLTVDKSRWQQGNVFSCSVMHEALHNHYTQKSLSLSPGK
light: DIVITQSPLSLPVTLGQPASISCRSSKSLLYKDGKTYLNWFQQRPGQSPQLLIYLMSTRASGVPDRFSGGGSGTDFTLKISRVEAEDVGVYYCQQLVEYPLTFGQGTKLEIKRTVAAPSVFIFPPSDEQLKSGTASVVCLLNNFYPREAKVQWKVDNALQSGNSQESVTEQDSKDSTYSLSSTLTLSKADYEKHKVYACEVTHQGLSSPVTKSFNRGEC
notes: Chimeric heavy chain Hc paired with humanised light chain L11; The pairing is read from the name
B5: HcL13 (antibody, human IgG1, kappa)
heavy: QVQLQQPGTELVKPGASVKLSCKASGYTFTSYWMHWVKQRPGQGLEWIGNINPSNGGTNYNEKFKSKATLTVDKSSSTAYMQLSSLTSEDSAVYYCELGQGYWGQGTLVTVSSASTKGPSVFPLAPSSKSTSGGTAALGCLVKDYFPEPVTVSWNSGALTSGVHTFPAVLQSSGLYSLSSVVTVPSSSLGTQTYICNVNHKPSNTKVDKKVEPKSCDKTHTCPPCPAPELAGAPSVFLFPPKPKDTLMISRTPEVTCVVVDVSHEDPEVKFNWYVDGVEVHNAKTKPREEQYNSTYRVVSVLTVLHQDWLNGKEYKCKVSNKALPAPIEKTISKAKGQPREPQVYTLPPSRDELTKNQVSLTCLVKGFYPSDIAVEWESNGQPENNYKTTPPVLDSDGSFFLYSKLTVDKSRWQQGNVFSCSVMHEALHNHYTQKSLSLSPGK
light: DIVMTQSPLSLPVTLGQPASISCRSSKSLLYKDGKTYLNWFQQRPGQSPQLLIYLMSTRASGVPDRFSGGGSGTDFTLKISRVEAEDVGVYYCQQLVEYPLTFGQGTKLEIKRTVAAPSVFIFPPSDEQLKSGTASVVCLLNNFYPREAKVQWKVDNALQSGNSQESVTEQDSKDSTYSLSSTLTLSKADYEKHKVYACEVTHQGLSSPVTKSFNRGEC
notes: Chimeric heavy chain Hc paired with humanised light chain L13; The pairing is read from the name
B6: H700L11 (antibody, human IgG1, kappa, V domains shown)
VH: QVQLVQSGAEVKKPGASVKVSCKASGYTFTSYWMHWVRQAPGQGLEWIGNINPSNGGTNYNEKFKSRATLTVDKSTSTAYMELSSLRSEDTAVYYCELGQGYWGQGTLVTVSS
VL: DIVITQSPLSLPVTLGQPASISCRSSKSLLYKDGKTYLNWFQQRPGQSPQLLIYLMSTRASGVPDRFSGGGSGTDFTLKISRVEAEDVGVYYCQQLVEYPLTFGQGTKLEIKR
B7: H14L18 (antibody, human IgG1, kappa, V domains shown)
VH: QVQLVQSGAEVVKPGASVKLSCKASGYTFTSYWMHWVKQAPGQGLEWIGNINPSNGGTNYNEKFKSRATLTRDTSTSTAYMELSSLRSEDTAVYYCELGQGYWGQGTLVTVSS
VL: DIVMTQDPLSNPVTLGQPVSISCRSSKSLLYKDGKTYLNWFLQRPGQSPQLLIYLMSTRASGVSDRFSGSGSGTDFTLKISRVEAEDVGVYYCQQLVEYPLTFGQGTKLEIKR
B8: H6L14 (antibody, human IgG1, kappa)
heavy: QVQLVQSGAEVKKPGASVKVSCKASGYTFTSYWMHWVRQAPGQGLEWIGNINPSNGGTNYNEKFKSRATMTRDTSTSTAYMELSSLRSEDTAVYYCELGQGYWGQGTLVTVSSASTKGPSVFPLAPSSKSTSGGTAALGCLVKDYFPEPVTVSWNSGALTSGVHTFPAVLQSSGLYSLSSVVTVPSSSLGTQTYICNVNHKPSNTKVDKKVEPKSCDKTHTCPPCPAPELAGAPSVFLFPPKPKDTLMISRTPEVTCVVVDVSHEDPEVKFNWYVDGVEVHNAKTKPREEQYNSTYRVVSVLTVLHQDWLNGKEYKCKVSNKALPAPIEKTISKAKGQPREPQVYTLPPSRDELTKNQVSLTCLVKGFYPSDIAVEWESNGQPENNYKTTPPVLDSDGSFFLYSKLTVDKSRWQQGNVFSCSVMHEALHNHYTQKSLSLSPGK
light: DIVMTQSPLSLPVTLGQPASISCRSSKSLLYKDGKTYLNWFLQRPGQSPQLLIYLMSTRASGVPDRFSGGGSGTDFTLKISRVEAEDVGVYYCQQLVEYPLTFGQGTKLEIKRTVAAPSVFIFPPSDEQLKSGTASVVCLLNNFYPREAKVQWKVDNALQSGNSQESVTEQDSKDSTYSLSSTLTLSKADYEKHKVYACEVTHQGLSSPVTKSFNRGEC
notes: Tested as CHO-K1 supernatant
B9: H6L17 (antibody, human IgG1, kappa, V domains shown)
VH: QVQLVQSGAEVKKPGASVKVSCKASGYTFTSYWMHWVRQAPGQGLEWIGNINPSNGGTNYNEKFKSRATMTRDTSTSTAYMELSSLRSEDTAVYYCELGQGYWGQGTLVTVSS
VL: DIVMTQDPLSLPVTLGQPASISCRSSKSLLYKDGKTYLNWFQQRPGQSPQLLIYLMSTRASGVSDRFSGSGSGTDFTLKISRVEAEDVGVYYCQQLVEYPLTFGQGTKLEIKR
notes: Tested as CHO-K1 supernatant
B10: H15L16 (antibody, human IgG1, kappa, V domains shown)
VH: QVQLVQSGAEVVKPGASVKLSCKASGYTFTSYWMHWVKQRPGQGLEWIGNINPSNGGTNYNEKFKSKATLTVDTSSSTAYMELSSLRSEDSAVYYCELGQGYWGQGTLVTVSS
VL: DIVMTQSPLSNPVTLGQPVSISCRSSKSLLYKDGKTYLNWFLQRPGQSPQLLIYLMSTRASGVPDRFSGGGSGTDFTLKISRVEAEDVGVYYCQQLVEYPLTFGQGTKLEIKR
notes: Tested as CHO-K1 supernatant
B11: H14L13 (antibody, human IgG1, kappa, V domains shown)
VH: QVQLVQSGAEVVKPGASVKLSCKASGYTFTSYWMHWVKQAPGQGLEWIGNINPSNGGTNYNEKFKSRATLTRDTSTSTAYMELSSLRSEDTAVYYCELGQGYWGQGTLVTVSS
VL: DIVMTQSPLSLPVTLGQPASISCRSSKSLLYKDGKTYLNWFQQRPGQSPQLLIYLMSTRASGVPDRFSGGGSGTDFTLKISRVEAEDVGVYYCQQLVEYPLTFGQGTKLEIKR
notes: Tested as CHO-K1 supernatant
B12: H6L15 (antibody, human IgG1, kappa, V domains shown)
VH: QVQLVQSGAEVKKPGASVKVSCKASGYTFTSYWMHWVRQAPGQGLEWIGNINPSNGGTNYNEKFKSRATMTRDTSTSTAYMELSSLRSEDTAVYYCELGQGYWGQGTLVTVSS
VL: DIVMTQSPLSLPVTLGQPASISCRSSKSLLYKDGKTYLNWFLQRPGQSPQLLIYLMSTRASGVSDRFSGGGSGTDFTLKISRVEAEDVGVYYCQQLVEYPLTFGQGTKLEIKR
notes: Tested as CHO-K1 supernatant
B13: H18L13 (antibody, human IgG1, kappa, V domains shown)
VH: QVQLVQSGAEVVKPGASVKLSCKASGYTFTSYWMHWVKQRPGQGLEWIGNINPSNGGTNYNEKFKSKATLTVDKSSSTAYMELSSLRSEDSAVYYCELGQGYWGQGTLVTVSS
VL: DIVMTQSPLSLPVTLGQPASISCRSSKSLLYKDGKTYLNWFQQRPGQSPQLLIYLMSTRASGVPDRFSGGGSGTDFTLKISRVEAEDVGVYYCQQLVEYPLTFGQGTKLEIKR
notes: Tested as CHO-K1 supernatant
B14: H6L16 (antibody, human IgG1, kappa)
heavy: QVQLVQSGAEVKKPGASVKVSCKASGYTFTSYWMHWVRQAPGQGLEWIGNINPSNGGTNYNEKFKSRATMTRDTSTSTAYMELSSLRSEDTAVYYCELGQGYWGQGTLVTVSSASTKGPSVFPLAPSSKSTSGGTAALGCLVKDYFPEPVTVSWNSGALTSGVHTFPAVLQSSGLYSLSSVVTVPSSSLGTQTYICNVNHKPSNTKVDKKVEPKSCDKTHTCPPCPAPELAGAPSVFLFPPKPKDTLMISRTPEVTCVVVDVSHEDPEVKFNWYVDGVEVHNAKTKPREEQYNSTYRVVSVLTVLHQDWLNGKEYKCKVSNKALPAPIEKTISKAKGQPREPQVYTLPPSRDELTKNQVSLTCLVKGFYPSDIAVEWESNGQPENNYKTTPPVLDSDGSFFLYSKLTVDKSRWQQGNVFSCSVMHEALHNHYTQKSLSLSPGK
light: DIVMTQSPLSNPVTLGQPVSISCRSSKSLLYKDGKTYLNWFLQRPGQSPQLLIYLMSTRASGVPDRFSGGGSGTDFTLKISRVEAEDVGVYYCQQLVEYPLTFGQGTKLEIKRTVAAPSVFIFPPSDEQLKSGTASVVCLLNNFYPREAKVQWKVDNALQSGNSQESVTEQDSKDSTYSLSSTLTLSKADYEKHKVYACEVTHQGLSSPVTKSFNRGEC
notes: Tested as CHO-K1 supernatant
B15: H17L16 (antibody, human IgG1, kappa)
heavy: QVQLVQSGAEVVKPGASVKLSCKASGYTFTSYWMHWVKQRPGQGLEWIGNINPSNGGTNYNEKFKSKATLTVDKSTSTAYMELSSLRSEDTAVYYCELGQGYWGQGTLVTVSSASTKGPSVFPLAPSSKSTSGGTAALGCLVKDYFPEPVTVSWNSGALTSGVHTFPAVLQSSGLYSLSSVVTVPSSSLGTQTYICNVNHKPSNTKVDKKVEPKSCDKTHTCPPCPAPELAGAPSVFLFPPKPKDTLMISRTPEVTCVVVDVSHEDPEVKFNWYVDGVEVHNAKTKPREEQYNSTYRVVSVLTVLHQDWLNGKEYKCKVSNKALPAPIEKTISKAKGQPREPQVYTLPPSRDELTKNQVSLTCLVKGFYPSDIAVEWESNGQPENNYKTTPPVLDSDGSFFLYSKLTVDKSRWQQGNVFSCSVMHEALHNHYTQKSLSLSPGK
light: DIVMTQSPLSNPVTLGQPVSISCRSSKSLLYKDGKTYLNWFLQRPGQSPQLLIYLMSTRASGVPDRFSGGGSGTDFTLKISRVEAEDVGVYYCQQLVEYPLTFGQGTKLEIKRTVAAPSVFIFPPSDEQLKSGTASVVCLLNNFYPREAKVQWKVDNALQSGNSQESVTEQDSKDSTYSLSSTLTLSKADYEKHKVYACEVTHQGLSSPVTKSFNRGEC
notes: Humanised 2A10

In one assay the target is T1, GST-human NOGO-A56 (human, UniProt P08515 1-218 = GST).
T1 construct: GST-tagged fusion expressed in E. coli BL21 and purified on glutathione-sepharose; coated on ELISA plates or amine-coupled to a CM5 chip; also called hNOGO; recombinant human NOGO
T1 sequence (P08515 1-218, tags or fused parts left off): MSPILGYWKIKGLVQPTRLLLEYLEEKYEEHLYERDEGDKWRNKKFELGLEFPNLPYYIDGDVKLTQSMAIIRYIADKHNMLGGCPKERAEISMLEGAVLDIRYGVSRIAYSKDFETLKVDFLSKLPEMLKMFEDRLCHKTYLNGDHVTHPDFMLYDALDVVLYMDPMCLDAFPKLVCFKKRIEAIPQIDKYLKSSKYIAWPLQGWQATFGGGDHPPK
Briefly: SPR (Biacore 3000), GST-human NOGO-A56 on CM5, antibody as analyte; single experiment. As to the method:
(§1) hNOGO (GST-human NOGO-A56) was immobilised to a CM5 chip by primary amine coupling using the Biacore Wizard program designed for targeted immobilisation levels. The CM5 sensor surface was activated by passing a solution of 50 mM N-hydroxy-succinimide (NHS) and 200 mM N-ethyl-N′-dimethylaminopropyl […] (EDC). Then hNOGO in sodium acetate buffer, pH5.0 or pH 4.5, was passed over the chip and immobilised. After immobilisation was complete any still activated esters were blocked by an injection of 1M ethanolamine hydrochloride, pH8.5.
(§2) The anti-NOGO mAbs were diluted down in HBS-EP (10 mM HEPES, pH 7.4, 150 mM NaCl, 3 mM EDTA, and 0.005% P-20 surfactant) and binding studies were carried out at range of defined antibody concentrations. All runs were referenced against a blanked sensor surface (one that had been activated and blocked as described earlier but had no addition of ligand). Analysis of binding was carried out using the BIAevaluation kinetic analysis software version 4.1. Biacore analysis of other antibodies of the invention essentially followed the same protocol as described herein.
(In general: In SPR one partner is held on a chip, and binding of the other changes the refractive index at the surface.)
B1 showed a Kd of 21.4 nM, an off-rate constant (koff) of 0.0254 s⁻¹ and a kon of 1.2e+06 M⁻¹ s⁻¹.
The molecule B2 gave a Kd of 30.3 nM, a koff of 0.047 s⁻¹ and a kon of 1.5e+06 M⁻¹ s⁻¹.
B3 returned a Kd of 12.9 nM, an off-rate (koff) of 0.0212 s⁻¹ and a kon of 1.64e+06 M⁻¹ s⁻¹.
On to B4, for which the affinity, expressed as Kd, was 3.55 nM; the dissociation rate constant (koff) is 0.0134 s⁻¹; the association rate constant (kon) is 3.78e+06 M⁻¹ s⁻¹.
In turn, B5 yielded a dissociation constant Kd of 1.98 nM, a koff of 0.00938 s⁻¹ and a kon of 4.8e+06 M⁻¹ s⁻¹.
In turn, B6 had a Kd of 19.4 nM, an off-rate constant (koff) of 0.0233 s⁻¹ and a kon of 1.19e+06 M⁻¹ s⁻¹.

For another assay, the target named is T1, GST-human NOGO-A56. The assay is described as above. This is another data set of the same source. As to the method:
(§3) The binding kinetics of the anti-NOGO monoclonal antibody (mAb) to recombinantly expressed human NOGO-A (GST-human NOGO-A56) was analysed using the Biacore3000 biosensor. The hNOGO-A chip was prepared as follows:
as §1, §2
B7 yielded a dissociation constant Kd of 3.6 nM, an off-rate (koff) of 0.00869 s⁻¹ and a kon of 2.41e+06 M⁻¹ s⁻¹.

The next assay concerns the target T1, GST-human NOGO-A56. Briefly: SPR (Biacore) off-rate ranking, CHO-K1 transient supernatant over GST-human NOGO-A56 chip; single experiment. As to the method: as §1
The hNOGO chip was prepared as for kinetic analysis. Cell supernatants where taken directly from transient transfections of CHO-K1 cells. These were passed directly over the sensor surface and the interaction measured. A mock transfected cell supernatant was used for double referencing to remove any artefacts due to the tissue culture media. All runs were referenced against a blanked sensor surface (one that had been activated and blocked as described earlier but had no addition of ligand). Analysis of binding was carried out using the BIAevaluation kinetic analysis software version 4.1.
B8 registered a dissociation rate constant (koff) of 0.0457 s⁻¹.
The same measure, in the same setting: with B7 the figure was 0.00835 s⁻¹; with B9, 0.0158 s⁻¹.
Same read-out and setting: for B10 the value was 0.00604 s⁻¹; for B11, 0.0138 s⁻¹.
B12 showed an off-rate constant (koff) of 0.0211 s⁻¹.
Molecule B13 registered an off-rate (koff) of 0.00907 s⁻¹.
The molecule B14 returned an off-rate (koff) of 0.0114 s⁻¹.

A further assay deals with T1, GST-human NOGO-A56. Put plainly: SPR (Biacore 3000), GST-human NOGO-A56 amine-coupled to CM5, antibody as analyte; mean (SD) of four experiments. As to the method: as §3, §1, §2
In the case of B15, the dissociation constant Kd amounted to 1.82 nM, the off-rate (koff) came to 0.0061 s⁻¹ and the on-rate constant (kon) came out at 3.38e+06 M⁻¹ s⁻¹.

For orientation: Kd means the equilibrium constant for the complex coming apart. Low values mean tighter binding, high ones weaker binding. What is called koff is a measure of how fast the partners let go of each other. A lower koff goes with a long-lived complex. For orientation: kon means a measure of how fast the partners come together. Lower therefore signals slow association.
